Reference: paper PMC13083955

What was measured:
[1] = molecular target: Dsk2 UBA (Saccharomyces cerevisiae) (UniProt P48510); settings: cited from earlier work
[2] = molecular target: full-length Dsk2 (yeast (S. cerevisiae)) (UniProt P48510)

Row | phase separation of Dsk2 alone, saturation concentration (csat) against temperature (20 mM NaPhosphate pH 6.8, 150 mM NaCl, 7.5% PEG 8000, 0.5 mM EDTA) [2] | Substance | Kd [1]
1 | – | Dsk2 UBL (from UniProt P48510) | 80 µM
2 | 10 µM | full-length Dsk2 (from UniProt P48510 1-373) (natural protein) | –
